According to the nanobody polyreactivity screen of Harvey et al. (2022):

Test: yeast display, Sf9 membrane polyspecificity reagent, FACS + sequencing; frameworks hold sequencing errors
Outline: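 Nanobodies from a synthetic yeast display library (Saccharomyces cerevisiae BJ5465), induced 36–48 hours with galactose, were stained 1 hour at 4 °C with 10% biotinylated, detergent-solubilized Sf9 membrane reagent, enriched on streptavidin microbeads, then FACS-sorted. Anti-HA (expression) and streptavidin (reagent binding) fluorescence set low and high (top ~1%) gates. Polyreactivity labels come from the gate of origin. Genes were colony-PCR amplified, MiSeq 2 × 250 sequenced and filtered by CDR length.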
In the case of “QVQLVESGGGLVQAGGILSLSCAASGSTLNSYAMGWNRPAPGKERELVAAIRWSGSSTYYADSVKGRFTISRDNAKNSVFLQMNSLKPQDTAVYYCAKGYSYGRPWDIYYYCGQGTQVTVSS”, the “polyreactivity (PSR sort gate)” value is reported as “low polyreactivity”. With “QVQLVESGGGLVQAGGSLRLSCAASGFIFHGYTMGWYRQAPGKERELVAGISFTGGSTYYADSVKGRFTISRDNAKNTVYLQMNSLKPEDTAVYYCAATYSSYWARYYYWGQGTQVTVSS” the “polyreactivity (PSR sort gate)” value was “high polyreactivity”. With “QVQLQESGGGLVQAGGSLRLSCAASGSISGPHLMGWYRQAPGQEREFVAAINVGANTYYADNVKGRFTISRDNAKNTLYLQMNSLKPEDTAVYYCAAVYYGDIGHEYWGQGTQVTVSC” the “polyreactivity (PSR sort gate)” value was “low polyreactivity”. For “QVQLVESGGGLVQAGGSLRLSCAASGGIFPWNAMGWYRQAPGKERELVAAIDNTDGTHYADSVKGRFTISRDNAKNTVYLQMNSQKPEDTAVYYCAAEYYYFVYPFYNWGYEYWGQGTQVTVSS”, the “polyreactivity (PSR sort gate)” value was “high polyreactivity”. For “QVQLVESGGGLVQAGGSLRLSCAASGSTFFPYAMGWYRQAPGKERELVATINYSGGGTYYADSVKGRFTISRDNAKNTGYLQMNSLKPEDTAVYYCAKTLARFDRGYYWGQGTQVTVSS”, the “polyreactivity (PSR sort gate)” value was “low polyreactivity”. With “QVQLVESGGGLVQAGGSLRLSCAASGRIFGSYAMGWYRQAPGKERELVATITFGGGSTYYAESEKGRFTISRDNAKNTVYLQMNSLKPEDTAVYYCAADSGYLGIYGDEYSWGQGTQVTVSS” the “polyreactivity (PSR sort gate)” value was “low polyreactivity”. In the case of “QVQLVESGGGLVQAGGSLRLSCAASGFIFFGEYVRGWYRQAPRKEREFVAAITDSDGSTYYADSVKGRFTISRDNAKNTVYLQMNSLKPEDTAVYYCAAERVYSDIDYWGKGTQVTVSS”, the “polyreactivity (PSR sort gate)” value is reported as “low polyreactivity”. For “QVQLVESGGGLVQAGGSLRLSCAASGSTFRPYAMGGYRQAPGKERELVARITGSGDSTYYADSVKGRFTISRDNAKNTVYLQMNSLKPEDTAVYYCAREFVFSLSGFDYWGQGTQVSVSS”, the “polyreactivity (PSR sort gate)” value was “low polyreactivity”. In the case of “QVQLVESGGGLVQAGGSLRLSCAASGSIFSSYVMGWYRQAPGKERELVAAMSRSGGSTYYADSVKGRFTISRDNAKNTVYLQMNSLKPEDTAVYYCAADWTRGSPGMDYWGQGTQVTVSS”, the “polyreactivity (PSR sort gate)” value is reported as “high polyreactivity”. With “QVQLLESGGGLDQAGGSLRLSCAASGRTFDRYAMGWYRQAPGKERELVAAISGRGGSTYYADSVKGRFTISRDNAKNTVYLQMNSLKPEDTAVYYCAARGSLWGAPTDYYYWGQGTQVTVSS” the “polyreactivity (PSR sort gate)” value was “high polyreactivity”. In the case of “QVQLVESGGGLVQAGGSLRLSCAASGRIFISNAMGWYRQAPGKERELVAAITWIGDRTYYADSVKGRFTISRDNAKNTVYLQMNSLKPEDTAVYYCNRVTSRVSGRYSYDYWGQGTQVTVSS”, the “polyreactivity (PSR sort gate)” value is reported as “high polyreactivity”. In the case of “QVQRVESRGGLVQAGGSLRLSCAASGSTFAVYALGWYRQAPGKERELVAAISQSGGSTNYADSVKGRFTISRDNAKNTVYLQMNSLKPEDTAVYYCNVDVSRSWAQPYTYDYWGQGTQVTVSS”, the “polyreactivity (PSR sort gate)” value is reported as “low polyreactivity”. In the case of “QVQLVESGGGLDQAGGSLRLSCAASGRTFRHYAMGWYRQAPGKERELVASIRWNGASTNYADSVKGRFTISRDNAKNTVYLQMNSLKPEDTAVYYCAARFGSGFNYWGQGTQVTVSS”, the “polyreactivity (PSR sort gate)” value is reported as “high polyreactivity”. With “QVQLVESAGGLVQAGGSLRLSCAASGFTFRSNAIGWYRQAPGKQRELVAAITSRGGSTYYADSVKGRFTISRDNAKNTVYLQMNSLKPVDTAVYYCAAEGRSRKFDYWGQGTQVTVSS” the “polyreactivity (PSR sort gate)” value was “high polyreactivity”. With “QVQLVESGGGLVQAGGSLRLSCAASGRTFRANAMGWYRQAPGKERELVAAISQRGGNTYYADSVKGRFTISRDNAKNTVYLQMNSLKPEDTAVYYCAADITTYRRGRYEYEYWGQGTQVTVSS” the “polyreactivity (PSR sort gate)” value was “high polyreactivity”. For “QVQLVESGGGLVQAGGSLRLSCAASGRTFGVNAMGWYRQAPGKERELVAAINWSADRTYYADSVKGRFTISRDNAKNTVYLQMNSLKPEDTAVYYCAVTQRWYWSYYGSDPSQYGYWGQGTQVTVSS”, the “polyreactivity (PSR sort gate)” value was “low polyreactivity”. In the case of “QVQLEESGGGLVQAGGSLRLTCAASGITFGTYAMGWYRQAPGKEREFVAGYYADSVKGRFTISRDNAKNTVYLQMNSLKPEDTAVYYCAADYLYHDDVDYWGQGTQVTVSS”, the “polyreactivity (PSR sort gate)” value is reported as “low polyreactivity”. With “QVQLVESGGGLVQAGGSLRLSCAASGSTFLGNAMGWYRQAPGKERELVATITGSSGSTYYADSVKGRFTISRDNAKNTVYLQMNSLKPEDTAVYYCAAQRRVVGRHGLSLIRYDYWGQGTQVTVSS” the “polyreactivity (PSR sort gate)” value was “low polyreactivity”. With “QVQLVESGGGLVQAGGSLRLICAASGSTLYRYAMGWYRPAPGKERELVAAISSAGSTHYADSVKGRFTISRDNAKNTVYLQMNSLKPEDTAVYYCAAKRYLKYGYWGQGTQVTVSS” the “polyreactivity (PSR sort gate)” value was “high polyreactivity”. With “QDQLVESGGGLVQAGGSLRLSGAASGRTFLGYAMGCYRQAPGKERALVAAITWRGGITYYADSVKGRFTISRDNAKNTVYLQMNSLKPEDTAVYYCAARKVGNRYTYYWGQGTQVTVSS” the “polyreactivity (PSR sort gate)” value was “high polyreactivity”. For “QVHLVESGGGIVQAGGSLRLSCAASGIIFMDNAMGWYRQAPGKERELVAAITTGGITYYADSVKGRFTISRDNAKNTVYLQMNSLKPEDTAVYYCAADNEWPRYDYWGQGTQVTVSS”, the “polyreactivity (PSR sort gate)” value was “low polyreactivity”. For “QVQLVESGGGLVQAGGSLRLSCAASGSTFHYAMGWYRPAPGKERELVAAITYGGGRTFYADSVKGRFTISRDNAKNTVYLQMNSLKPEDTAVYYCAKVVYYYGRGWTDYRSTMDSWGQGTQVTVSS”, the “polyreactivity (PSR sort gate)” value was “low polyreactivity”. For “QVQLVESWGGLVQAGGSLRLSCAASGRIFDPYAMGWYRQAPGKERELVATITLRGGITYYADSVKGRFTISRDNAKNTVYLEMNSLKPEDTAVYYCAKKVRYYVRWEYDYWGQGTQVTVSS”, the “polyreactivity (PSR sort gate)” value was “low polyreactivity”. For “QVQLVESGGGLVQAGGSLRLSCAASGFPIHAYVMGWYRQAPGKERELVAAISSGGSTYYADSVKGRFTISRDNAKKTVYLQMNSLKPEDTAVYYCAAGYPYYWHFDYWGQGTQVTVSS”, the “polyreactivity (PSR sort gate)” value was “low polyreactivity”. For “QVQLVESGGGLVQAGGSLRLSCAASGFTFPVYTMGWYRQAPGKERELVAAISGSGASTYYADSVKGRFTISRDNAKNTVYLQMNSLKPEDTAVYYCAAPLWRNYYFGWMDYWGQGTQVTVSS”, the “polyreactivity (PSR sort gate)” value was “high polyreactivity”. For “QVQLVESGGGLVQAGGSLRLSCAASGFIFSSYAMGWYRPAPGKERELVAAISKSGGRTYYADSVKGRFTISRDNAKNTVYLQMNSLKPEDTSVYYCAKDVSDPFYDPFEYWGQGTQVTVSS”, the “polyreactivity (PSR sort gate)” value was “low polyreactivity”. For “QVQLGDSGGGLLQAGGSLRLSCAASGRTFYYNALGWYRQAPGKERELVARIRSGGSTNYADSVKGRFTISRDNAKNTVYFQMNSRKPEDTAVYYCNALGAKGYVKGFDYWGLGTQVTVSS”, the “polyreactivity (PSR sort gate)” value was “low polyreactivity”. In the case of “QVQLVESGGRLVQAGGSLRLSCAASGRTFARNAMGWYRQAPGKERELVAAISWSGGSTYYADSVKGRFTISRDNAKNTVYLQMNSLKPEDTAVYYCAARICYYNYWGQGTQVTVSS”, the “polyreactivity (PSR sort gate)” value is reported as “high polyreactivity”. With “QVQLVESGGGLVQAGGSLRLSCAASGSTFNRYAMGWYRQAPGKERELVAAISLSGGSTYYADSVKGRFTISRDNAKNTVYLQMNSLKPEDTAVYYCAADIFYYSSSYGYWGQGTQVTVSS” the “polyreactivity (PSR sort gate)” value was “low polyreactivity”. With “QVQLVESGGGLVQAGGSLRLSCAASGSTFSTNALGWYREAPGKELELVDDISSSSGRTYYADSVKGRFTISRDNAKNTVYLQMNSLKPEDTAVYYCAAANQGYRSGRKGVQRFDYWGQGTQVTVSS” the “polyreactivity (PSR sort gate)” value was “high polyreactivity”. With “QVQLLESGGGLVQAGGSLRLSCAASGSTFDYKSMGWYRQAPGKERELVATINDSGGNTYYADSVKGRFTISRDNAKNTVYLQMNSLKPEDTAVYYCATVGYLYTPVVVTWWDWGDYWGQGTQVTVSS” the “polyreactivity (PSR sort gate)” value was “low polyreactivity”. In the case of “QVQLVESGGGLVQAGGSLRLSCAASGRTFWYNARGWYRQAPGKERELVAAITRGGGRTYYADSVKGRFTISRDNAKNTVYLQMNSPKPEDTAVYYCADDSHYDMNYWGQGTQVTVSS”, the “polyreactivity (PSR sort gate)” value is reported as “low polyreactivity”. For “QVQLVESGGGLVQAGGSLRLSCAASGRIFKYYGMGWYRQAPGKERELVAAITRGDSTNYADSVKGRFTISRDNAKNTVYLQMNSLKPEDTAVYYCNVGTRRGYDYWGQGTQVTVSS”, the “polyreactivity (PSR sort gate)” value was “high polyreactivity”. With “QVQLVESGGGLVQAGGSLRLSCAASGSTFPYYARGWYRQAPGKERELVAAITSGGSTNYADSVKGRFTISRDNAKNTVYLQMNSLKPEDTAVYYCAARLRYTTVIYYYWGQGTQVTVSS” the “polyreactivity (PSR sort gate)” value was “high polyreactivity”. With “QVQLVESGGGLVQAGGSLRLSCAASGSIFPGNAMGWYRPAPGKERELVAVIDFSGASTYYADSVKGRYTISRDNAKNTVYLQMNCLKPEVTADFWGQGTQVTVSS” the “polyreactivity (PSR sort gate)” value was “low polyreactivity”. For “QVQLVESGGGLVQAGGSLRLSCAASGFIFYRYAMGWYRLAPGKERELVAAISSSGGSTYYADSVKGRFTISRDYAKYSVYLQMNSLKPEDTAVYYCAVDYWGQGTQVTVSS”, the “polyreactivity (PSR sort gate)” value was “high polyreactivity”. For “QVLLVESGGGLVQAGGSLRLSCAASGFIFPYNAMGWYRQAPGKERELVASISGSGRTNYADSVKGRFTISRDNAKNTVYLQMNSLKPEDTAVYYCNKRWYVQKGYDYWGQGTQVTVSS”, the “polyreactivity (PSR sort gate)” value was “high polyreactivity”. With “QVQLVESGGGLVQAGGSLRLSCAASGRTFYYNAMGWYRQAPGKERELVAAISSGDSTYYADSVKGRFTISRDNAKNTVYLQMNSLKPEDTAVYYCNKYVAYDYWGQGTQVTVSS” the “polyreactivity (PSR sort gate)” value was “low polyreactivity”. In the case of “QVQLVESGGGLVQAGGSLSLSCAASGSTFNRYAMRSYRQAPGQESELVDTINLNTGSTYADSVKGRFTISRDNAKNTVYLEMNSVKPEDTAVYYCAAVGQTHPTSPLSTKYDYWGQGTQVTVSS”, the “polyreactivity (PSR sort gate)” value is reported as “low polyreactivity”. With “QVQLVESGGGIVQAGGCLRLSFAASGFSFAKNAMGSYRQAPGKERELVAAIRSGGSTKYADSVNGRFTISRDNAKNTVYLQMNSLKPEDTAVYYCNARSTWSRTRPAYDYWGQGTQVTVSS” the “polyreactivity (PSR sort gate)” value was “high polyreactivity”. With “QVQLVESGGGLVQAGGSLRLSCAASGSTFRANLMGRYRQAPGKERELVAAITSAGGSTYYADSVKGRFTISRDNAKNTVYIQMNSLKPEDTAVYYCNKQERPGPGRARYNYWGQGTQVTVSS” the “polyreactivity (PSR sort gate)” value was “high polyreactivity”. With “QVQLVESCGALVQAGGSLRLICAGSGSIFHVNAMGWSRPAHGKESELVAGISDGGSTYYADSVKGRFTISRYYAKNTVYFQMNSLKPEDSGVYYWATDYPSRWHVHRGFQGKYDYWGQGTQVTLSS” the “polyreactivity (PSR sort gate)” value was “low polyreactivity”. With “QVQLVESGGGLVQAGGSLRLSCAASGSIFDFNAMGWYRQAPGKERELVATIRYSGGSTYYADSVKGRFTISRDNAKNTVYLQMNSLKPEDTAVYYCIFRSPSYEYDYWGQGTQVTVSS” the “polyreactivity (PSR sort gate)” value was “low polyreactivity”.
